Test results from patent publication US20180086841A1 (Merck Sharp & Dohme, published 2018).

What was measured:
human CD27 = target: T1, human CD27 (human, UniProt P26842 21-260); assay: flow cytometry MFI, CD4+ T cells of human PBMC, N=2 donors
T1 construct: also called hCD27; HsCD27
Description: Labeled cells were washed by re-suspending them in 150 ul of staining buffer (SB) followed by centrifugation at 300 g for 5 minutes. Cells were then resuspended in 100 ul of SB containing primary anti-CD27 antibodies at various concentrations, incubated in the dark at 4° C. for 30 minutes, followed by washing and centrifugation steps as previously described. […] Cells were incubated for 30 minutes at 4° C. in the dark, followed by washing and centrifugation steps. Next, cells were stained with a cocktail of phenotypic antibodies for surface markers (CD3, CD4, CD8, CD11b) and incubated for 30 minutes at 4° C. in the dark, followed by washing and centrifugation steps. […] Samples were acquired in a LSR-Fortessa flow cytometer (BD Biosciences) using the high throughput sampler and data analyzed by FlowJo software (Tree Star Inc).

Q15A = target: T2, Q15A; assay: flow cytometry on CHO-K1 transfectants, right sub-column
T2 construct: also called hCD27 Q15A
T2 receptor chain: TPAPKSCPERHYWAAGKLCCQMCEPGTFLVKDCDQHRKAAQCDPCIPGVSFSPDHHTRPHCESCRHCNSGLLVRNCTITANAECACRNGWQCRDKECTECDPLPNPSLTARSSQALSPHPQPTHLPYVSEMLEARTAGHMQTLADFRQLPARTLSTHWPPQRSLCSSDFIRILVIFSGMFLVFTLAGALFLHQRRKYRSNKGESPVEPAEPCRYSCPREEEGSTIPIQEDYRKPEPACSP
Description: (§1) The hCD27 variants that were tested are listed. Amino acids correspond to the UniProt P26842-1 sequence. Amino acids 1-20 constitute the signal peptide. Binding is expressed as the geometric mean of the FITC signal, relative to antibody binding to hCD27, which was set at 100%.
(§2) The ability of several anti-hCD27 antibodies to bind to a series of hCD27 alanine mutants was determined using CHO-K1 cells, transiently transfected pCI-neo empty vector, pCI-neo.hCD27 and several pCI-neo.CD27Ala mutant constructs.
(§3) Detached cells were transferred to 96 wells round-bottomed well plates at approximately 1.2×10⁵ cells/well. After spinning down the cells, discarding the supernatants and re-suspending the cells in the residual volume, the primary antibodies were added and incubated for 30 minutes at 4° C. Cells were washed three times with DPBS/BSA 1%, followed by centrifugation, discarding of the supernatants and re-suspension in the residual volume. […] After washing once, antibody binding was detected using the HTS plate reader (FACS Canto II) and FlowJo software for data analysis. Debris, dead cells and doublets were excluded from the analysis. Binding was expressed as the geometric mean of the FITC signal, relative to antibody binding to hCD27, which was set at 100%.

G16A = target: T3, G16A; assay: as above
T3 construct: also called hCD27 G16A
T3 receptor chain: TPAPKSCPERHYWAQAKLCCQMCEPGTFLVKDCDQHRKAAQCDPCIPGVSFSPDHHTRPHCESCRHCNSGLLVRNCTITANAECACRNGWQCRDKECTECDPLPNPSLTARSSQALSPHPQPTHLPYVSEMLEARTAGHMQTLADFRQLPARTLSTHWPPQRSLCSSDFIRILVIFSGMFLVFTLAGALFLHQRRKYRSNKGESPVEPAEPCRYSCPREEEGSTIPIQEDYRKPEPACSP
Description: as §1, §2, §3

K17A = target: T4, K17A; assay: as above
T4 construct: also called hCD27 K17A
T4 receptor chain: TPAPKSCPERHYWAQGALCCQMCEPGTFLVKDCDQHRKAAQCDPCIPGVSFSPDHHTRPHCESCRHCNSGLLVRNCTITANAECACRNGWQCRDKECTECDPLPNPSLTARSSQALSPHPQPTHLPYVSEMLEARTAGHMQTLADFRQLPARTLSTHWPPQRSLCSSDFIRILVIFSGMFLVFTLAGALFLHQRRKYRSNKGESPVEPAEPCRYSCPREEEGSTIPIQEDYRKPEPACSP
Description: as §1, §2, §3

F28A = target: T5, F28A; assay: as above
T5 construct: also called hCD27 F28A
T5 receptor chain: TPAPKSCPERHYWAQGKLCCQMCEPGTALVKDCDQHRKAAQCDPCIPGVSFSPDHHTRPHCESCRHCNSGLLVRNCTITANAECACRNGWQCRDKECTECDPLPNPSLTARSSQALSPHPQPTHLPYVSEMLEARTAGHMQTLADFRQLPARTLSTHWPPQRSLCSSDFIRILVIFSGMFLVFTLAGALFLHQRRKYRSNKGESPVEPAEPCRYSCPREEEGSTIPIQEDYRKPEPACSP
Description: as §1, §2, §3

V30A = target: T6, V30A; assay: as above
T6 construct: also called hCD27 V30A
T6 receptor chain: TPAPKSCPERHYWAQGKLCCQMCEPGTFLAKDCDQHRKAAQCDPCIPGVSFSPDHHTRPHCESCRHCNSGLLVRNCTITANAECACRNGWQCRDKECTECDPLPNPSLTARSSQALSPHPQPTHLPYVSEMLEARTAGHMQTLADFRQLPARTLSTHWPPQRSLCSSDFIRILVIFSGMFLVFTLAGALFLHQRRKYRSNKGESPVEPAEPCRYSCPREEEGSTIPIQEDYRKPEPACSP
Description: as §1, §2, §3

V49A = target: T7, V49A; assay: as above
T7 construct: also called hCD27 V49A
T7 receptor chain: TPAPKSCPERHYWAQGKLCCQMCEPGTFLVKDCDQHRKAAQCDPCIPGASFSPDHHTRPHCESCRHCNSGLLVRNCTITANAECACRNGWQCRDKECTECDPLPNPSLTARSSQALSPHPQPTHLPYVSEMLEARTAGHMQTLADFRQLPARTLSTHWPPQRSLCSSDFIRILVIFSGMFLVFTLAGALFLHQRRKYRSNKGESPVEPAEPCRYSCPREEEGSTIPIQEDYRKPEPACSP
Description: as §1, §2, §3

G89A = target: T8, G89A; assay: as above
T8 construct: also called hCD27 G89A
T8 receptor chain: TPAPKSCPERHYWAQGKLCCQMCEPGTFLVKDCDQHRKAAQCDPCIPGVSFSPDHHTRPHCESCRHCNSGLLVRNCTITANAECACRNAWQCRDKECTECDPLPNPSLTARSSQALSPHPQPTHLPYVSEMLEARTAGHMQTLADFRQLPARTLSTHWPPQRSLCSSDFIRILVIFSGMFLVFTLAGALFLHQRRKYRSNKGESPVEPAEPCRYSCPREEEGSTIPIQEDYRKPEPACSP
Description: as §1, §2, §3

Q91A = target: T9, Q91A; assay: as above
T9 construct: also called hCD27 Q91A
T9 receptor chain: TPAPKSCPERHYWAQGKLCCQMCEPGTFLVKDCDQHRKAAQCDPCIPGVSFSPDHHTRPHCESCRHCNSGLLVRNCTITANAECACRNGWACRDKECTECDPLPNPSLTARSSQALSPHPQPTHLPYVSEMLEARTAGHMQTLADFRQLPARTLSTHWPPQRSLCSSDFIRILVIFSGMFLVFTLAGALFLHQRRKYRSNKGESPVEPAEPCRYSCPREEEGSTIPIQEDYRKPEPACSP
Description: as §1, §2, §3

E9A = target: T10, E9A; assay: as above
T10 construct: also called hCD27 E9A
T10 receptor chain: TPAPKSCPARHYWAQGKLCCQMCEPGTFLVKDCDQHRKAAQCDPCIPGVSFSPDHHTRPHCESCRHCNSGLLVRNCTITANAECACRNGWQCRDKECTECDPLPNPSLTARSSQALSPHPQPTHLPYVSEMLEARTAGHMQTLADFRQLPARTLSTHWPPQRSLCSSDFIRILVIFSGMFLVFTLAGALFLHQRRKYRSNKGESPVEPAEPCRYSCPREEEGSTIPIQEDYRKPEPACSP
Description: as §1, §2, §3

R10A = target: T11, R10A; assay: as above
T11 construct: also called hCD27 R10A
T11 receptor chain: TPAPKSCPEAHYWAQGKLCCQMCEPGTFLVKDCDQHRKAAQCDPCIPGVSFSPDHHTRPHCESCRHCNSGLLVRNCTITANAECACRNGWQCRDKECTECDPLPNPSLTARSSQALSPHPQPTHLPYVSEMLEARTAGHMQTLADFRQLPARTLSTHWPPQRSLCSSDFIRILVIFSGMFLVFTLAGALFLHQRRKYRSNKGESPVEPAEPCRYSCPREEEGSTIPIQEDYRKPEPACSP
Description: as §1, §2, §3

B1: hCD27.131A (mouse parental 131A) (antibody, mouse IgG1, V domains shown)
VH: QIQLVQSGPELKKPGETVKISCKASGYTFTNYGMNWVKQAPGKGLKWMGWINTNTGEPTYAEEFKGRFAFSLETSATTAYLQINNLKNEDTATYFCAREGDAMDYWGQGTSVTVSS
VL: QIVLTQSPAIMSASPGEKVTMTCSASSSVSYMHWYQQKSGTSPKRWIYDTSKLASGVPARFSGSGSGTSYSLTISSMEAEDAATYYCQQWNSYPFTFGSGTKLEIK
notes: Mouse IgG1 antibody; also called mouse hCD27.131A
- EC50 (human CD27): 0.0645 nM
- binding, WT hCD27 = 100 (GM FITC) (Q15A): 136%
- binding, WT hCD27 = 100 (GM FITC) (G16A): 108%
- binding, WT hCD27 = 100 (GM FITC) (K17A): 126%
- binding, WT hCD27 = 100 (GM FITC) (F28A): 57.1%
- binding, WT hCD27 = 100 (GM FITC) (V30A): 94%
- binding, WT hCD27 = 100 (GM FITC) (V49A): 99.8%
- binding, WT hCD27 = 100 (GM FITC) (G89A): 82.9%
- binding, WT hCD27 = 100 (GM FITC) (Q91A): 136%
- binding, WT hCD27 = 100 (GM FITC) (E9A): 132%
- binding, WT hCD27 = 100 (GM FITC) (R10A): 108%
